Values quoted from earlier work as cited in US20090004190A1, “Rage Fusion Proteins And Methods Of Use” (priority 2006, published 2009).

Legend:
[1] = assessed by retention of immunoreactivity sRAGE

## human sRAGE: human soluble RAGE (SEQ ID NO: 4)
[1]
  half-life: less than 2 hours
other
  half-life in plasma: about 2 hours
